Tested on: His:paALKBH5-like (Gypsy_Pa_2799 ORF2) (Phalaenopsis aphrodite)
Test: EMSA
Details: EMSA: 10 mM Tris-HCl pH 8.0, 100 mM NaCl, 50% glycerol, 1 U RiboLock, 30 min at 4 C; Northwestern: 10 mM Tris-HCl pH 7.5, 1 mM EDTA, 0.1 M NaCl, 0.05% Triton …

With AMV RNA 3 5'UTR transcript the Kd was 210 nM.

Source: publication PMC9289625
